Legend:
[1] = molecular target: T1, recombinant human CDH3 [EC2-EC3] (human, UniProt P22223 216-440, limits assumed); assay: SPR (ProteOn XPR36), bispecific captured on protein A/G, CDH3 EC2-EC3 as analyte
T1 construct: no separate entry is named for EC3; also called HuCDH3_EC2-EC3; EC2-EC3 peptide

[2] = molecular target: T2, recombinant human CDH3 [EC1-EC2] (human, UniProt P22223 108-328, limits assumed); assay: SPR (ProteOn XPR36), bispecific captured on protein A/G, CDH3 as analyte, 1:1 Langmuir fit
T2 construct: also called HuCDH3 EC1-EC2
Method: (§1) The binding affinity of purified CDH3/TRAILR2 bispecific constructs for recombinant human CDH3 (either full-length, EC1-EC2 or EC2-EC3) was determined by Surface Plasmon Resonance (SPR), using a ProteOn XPR36 instrument (Bio-Rad). The running buffer and all dilutions (except where stated) were done in PBS-TEDTA. The GLM sensor chip (Bio-Rad) was normalized and pre-conditioned as per the manufacturers recommendations. The sensor chip was activated with equal mixture of EDC/s-NHS in the horizontal direction for 300 sec at a flow rate of 30 μl/min and immobilized with protein A/G (60 μg/ml in 10 mM acetate pH 4.5) in the horizontal direction for 300 sec at a flowrate of 30 μl/min resulting in 5000 RU of protein A/G on the surface. The sensor chip was deactivated with 1 M ethanolamine HCl in the horizontal direction for 300 sec at a flowrate of 30 μl/min.
(§2) For binding kinetic determination to CDH3, bispecific molecules were captured individually on the protein A/G surface vertically for 150 sec at a flowrate of 30 μl/min. The baseline was stabilized by injecting PBS-T-EDTA for 60 sec at a flowrate of 100 μl/min horizontally. The analyte (human full-length CDH3, CDH3 [EC1-EC2] or CDH3 [EC2-EC3]) was injected horizontally over the captured antibody for 300 sec at a flowrate of 30 μl/min and a dissociation for 1200 sec. The concentration of the analytes injected was 200 nM for the full-length CDH3 and 500 nM for EC1-EC2 and EC2-EC3.

[3] = molecular target: T3, recombinant human CDH3, full-length (human, UniProt P22223 108-654, limits assumed); assay: as above
T3 construct: also called HuCDH3 full-length; human full-length CDH3
Method: as §1, §2

| binding result [1] | Kd [2] | Kd [3] | Binder |
| --- | --- | --- | --- |
| no binding (tested: 500 nM analyte) | 11.4 nM | 9.93 nM | bispecific binding molecule CDH3/TRAILR2v2 (bispecific antibody, human IgG1, kappa, L234A L235A, also called CDH3/TR2v2) heavy: not shown light: DIVMTQSPLSLPVTPGEPASISCRSSQSLLHSYGYNYLDWYLQKPGQSPQLLIYLGSNRASGVPDRFSGSGSGTDFTLKISRVEAEDFGIYYCMQALQTPITFGQGTRLEIKRTVAAPSVFIFPPSDEQLKSGTASVVCLLNNFYPREAKVQWKVDNALQSGNSQESVTEQDSKDSTYSLSSTLTLSKADYEKHKVYACEVTHQGLSSPVTKSFNRGEC |
| no binding (tested: 500 nM analyte) | 0.85 nM | 1.08 nM | bispecific binding molecule CDH3/TRAILR2v3 (bispecific antibody, human IgG1, kappa, L234A L235A, also called CDH3/TR2v3) heavy: not shown light: DIVMTQSPLSLPVTPGEPASISCRSSQSLMYSYGYNYLDWYLQKPGQSPQLLIYLGSNRASGVPDRFSGSGSGTDFTLKISRVEAEDVGIYYCMQALQTPPTFGQGTKVEIKRTVAAPSVFIFPPSDEQLKSGTASVVCLLNNFYPREAKVQWKVDNALQSGNSQESVTEQDSKDSTYSLSSTLTLSKADYEKHKVYACEVTHQGLSSPVTKSFNRGEC |

Reference: US20240052065A1 (Boehringer Ingelheim, published 2024)
